# Reference: patent US20030175273A1 (Kyowa Kirin, published 2003)
# Ends that are not written are not given here.
# T1: biotinylated Compound 1 (biotinylated CCR4 partial peptide) (human, also: biotinylated, site not given here)
# T1 construct: Same peptide as in BSA-Compound 1
# T1 peptide: DESIYSNYYLYESIPKPC
# T2: BSA-Compound 1 (human CCR4 extracellular region peptide Compound 1 conjugated with BSA) (human, also: conjugated to BSA through SMCC, site not given here)
# T2 construct: the claims speak of positions 13 to 29; ELISA antigen; also called CCR4 partial peptide
# T2 peptide: DESIYSNYYLYESIPKPC
# T3: human CC chemokine receptor 4 (CCR4) on CCR4/EL-4 cells (human, UniProt P51679 1-360)
# T3 construct: also called hCCR4; human CCR4-high-expressing cell
# T3 sequence: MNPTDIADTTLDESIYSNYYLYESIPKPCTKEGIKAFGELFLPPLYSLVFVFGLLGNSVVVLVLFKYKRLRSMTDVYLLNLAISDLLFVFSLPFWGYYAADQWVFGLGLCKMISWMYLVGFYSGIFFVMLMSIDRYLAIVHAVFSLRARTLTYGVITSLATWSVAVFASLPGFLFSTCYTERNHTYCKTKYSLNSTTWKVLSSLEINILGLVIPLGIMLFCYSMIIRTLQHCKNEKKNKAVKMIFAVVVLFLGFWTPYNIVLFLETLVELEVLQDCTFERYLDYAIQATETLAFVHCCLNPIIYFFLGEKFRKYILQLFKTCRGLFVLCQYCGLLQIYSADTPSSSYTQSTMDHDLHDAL
# Experiments:
# [1] = target: T1, biotinylated Compound 1 (biotinylated …); assay: BIAcore 2000, biotinylated Compound 1 on sensor tip SA, antibody at 4 µg/ml
# Protocol: In order to measure the binding activity in more detail, the binding activity of various purified antibodies was measured using BIAcore 2000 (manufactured by BIACORE) as follows. In this case, HBS-EP (manufactured by BIACORE) was used as the buffer for diluting samples and for the measurement. First, 5 μl of 0.05 μg/ml solution of Compound 1 as a biotinylated CCR4 partial peptide was added to a sensor tip SA (manufactured by BIACORE) at a flow rate of 5 μl/minute and immobilized on the sensor tip.
# To the prepared biotinylated compound 1 -immobilized sensor tip, 20 μl of 4 μg/ml solution of each of the purified antibodies was added at a flow rate of 5 μl/minute, and after completion of the addition, the dissociation reaction was monitored for 4 minutes and then the sensor tip surface was regenerated by adding 5 μl of 10 mM HCl twice. In this way, a binding reaction curve (sensorgram) for Compound 1 was obtained.
# [2] = target: T2, BSA-Compound 1 (human CCR4 …); assay: ELISA on BSA-Compound 1, COS-7 culture supernatant
# Protocol: Into a 96 well ELISA plate (manufactured by Greiner), 0.05 μg/ml of the prepared conjugate was dispensed in at 50 μl/well and allowed to stand at 4° C. overnight for adsorption. After washing with PBS, PBS containing 1% BSA (hereinafter referred to as “1% BSA-PBS”) was added thereto at 100 μl/well and allowed to react at room temperature for 1 hour to block the remaining active groups. After washing each well with PBS containing 0.05% Tween 20 (hereinafter referred to as “Tween-PBS”), a culture supernatant of the transformant was added at 50 μl/well and allowed to react at room temperature for 1 hour. After the reaction and subsequent washing of each well with Tween-PBS, a peroxidase-labeled goat anti-human IgG(γ) antibody solution (manufactured by American Qualex) diluted 6,000 folds with 1% BSA-PBS was added as a secondary antibody solution in 50 μl/well portions and allowed to react at room temperature for 1 hour After the reaction and subsequent washing with Tween-PBS, an ABTS substrate solution (a solution prepared by dissolving 0.55 g of […] ammonium in 1 liter of 0.1 M citrate buffer (pH 4.2) and adding 1 μl/ml hydrogen peroxide just before use) was added at 50 μl/well to develop color, and the reaction was stopped 20 minutes thereafter by adding 5% SDS solution at 50 μl/well. Thereafter, absorbance at 415 nm was measured.
# [3] = target: T3, human CC chemokine receptor 4 (CCR4) on …; assay: flow cytometry on CCR4/EL-4 cells, antibody at 10 µg/ml
# Protocol: Into a 96 well plate, 2×10⁵ or more of CCR4/EL-4 cells, CCR4-high-expressing cells obtained in Reference Example 3, were dispensed. An antibody solution was prepared by diluting each of the purified antibodies and a human immunoglobulin (manufactured by Welfide) for preventing nonspecific staining to give concentrations of 10 μg/ml and 3.75 mg/ml, respectively, with a buffer for FACS, and the antibody solution was added at 100 μl/well and allowed to react for 30 minutes in ice. As a negative control, 10 μg/ml of an anti-human IL-5 receptor a chain antibody (WO 97/10354) was used. After washing twice with 200 μl/well of the buffer for FACS, a PE-labeled anti-human IgG antibody (manufactured by Coulter) diluted 100 times was added at 50 μl/well. After the reaction in ice under shading and subsequent washing three times with 200 μl/well of the buffer for FACS, the reaction product was suspended in 500 μl of the buffer for FACS and the fluorescence intensity was measured using a flow cytometer.
binding result [1],binding result [2],binding result [3],Binder
–,binds,–,"anti-CCR4 CDR-grafted antibody HV0LV2 (antibody, human IgG1, V domains shown, Tested as COS-7 culture supernatant only; also called pKM2160HV0LV2) VH: EVQLVESGGGLVQPGGSLRLSCAASGFTFSNYGMSWVRQAPGKGLEWVSTISSASTYSYYPDSVKGRFTISRDNSKNTLYLQMNSLRAEDTAVYYCARHSDGNFAFGYWGQGTLVTVSS VL: DILMTQSPLSLPVTPGEPASISCRSSRNIVHINGDTYLEWYLQKPGQSPQLLIYKVSNRFSGVPDRFSGSGSGTDFTLKISRVEAEDVGVYYCFQGSLLPWTFGQGTKVEIK"
–,binds,–,"anti-CCR4 CDR-grafted antibody HV3LV0 (antibody, human IgG1, V domains shown, Tested as COS-7 culture supernatant only; also called pKM2160HV3LV0) VH: EVQLVESGGGLVQPGGSLRLSCAASGFIFSNYGMSWVRQAPGKGLEWVSTISSASTYSYYPDSVKGRFTISRDNSKNTLYLQMNSLRAEDTAVYYCGRHSDGNFAFGYWGQGTLVTVSS VL: DIVMTQSPLSLPVTPGEPASISCRSSRNIVHINGDTYLEWYLQKPGQSPQLLIYKVSNRFSGVPDRFSGSGSGTDFTLKISRVEAEDVGVYYCFQGSLLPWTFGQGTKVEIK"
–,binds,–,"anti-CCR4 CDR-grafted antibody HV3LV3 (antibody, human IgG1, V domains shown, Tested as COS-7 culture supernatant only; also called pKM2160HV3LV 3) VH: EVQLVESGGGLVQPGGSLRLSCAASGFIFSNYGMSWVRQAPGKGLEWVSTISSASTYSYYPDSVKGRFTISRDNSKNTLYLQMNSLRAEDTAVYYCGRHSDGNFAFGYWGQGTLVTVSS VL: DVLMTQSPLSLPVTPGEPASISCRSSRNIVHINGDTYLEWYLQKPGQSPQLLIYKVSNRFSGVPDRFSGSGSGTDFTLKISRVEAEDVGVYYCFQGSLLPWTFGQGTKVEIK"
–,binds,–,"anti-CCR4 CDR-grafted antibody HV1LV2 (antibody, human IgG1, V domains shown, Tested as COS-7 culture supernatant only; also called pKM2160HV1LV2) VH: EVQLVESGGGLVQPGGSLRLSCAASGFIFSNYGMSWVRQAPGKGLEWVSTISSASTYSYYPDSVKGRFTISRDNSKNTLYLQMNSLRAEDTAVYYCARHSDGNFAFGYWGQGTLVTVSS VL: DILMTQSPLSLPVTPGEPASISCRSSRNIVHINGDTYLEWYLQKPGQSPQLLIYKVSNRFSGVPDRFSGSGSGTDFTLKISRVEAEDVGVYYCFQGSLLPWTFGQGTKVEIK"
–,binds,–,"anti-CCR4 CDR-grafted antibody HV2LV0 (antibody, human IgG1, V domains shown, Tested as COS-7 culture supernatant only; also called pKM2160HV2LV0) VH: EVQLVESGGGLVQPGGSLRLSCAASGFTFSNYGMSWVRQAPGKGLEWVSTISSASTYSYYPDSVKGRFTISRDNSKNTLYLQMNSLRAEDTAVYYCGRHSDGNFAFGYWGQGTLVTVSS VL: DIVMTQSPLSLPVTPGEPASISCRSSRNIVHINGDTYLEWYLQKPGQSPQLLIYKVSNRFSGVPDRFSGSGSGTDFTLKISRVEAEDVGVYYCFQGSLLPWTFGQGTKVEIK"
–,binds,–,"anti-CCR4 CDR-grafted antibody HV0LV1 (antibody, human IgG1, V domains shown, Tested as COS-7 culture supernatant only; also called pKM2160HV0LV1) VH: EVQLVESGGGLVQPGGSLRLSCAASGFTFSNYGMSWVRQAPGKGLEWVSTISSASTYSYYPDSVKGRFTISRDNSKNTLYLQMNSLRAEDTAVYYCARHSDGNFAFGYWGQGTLVTVSS VL: DVVMTQSPLSLPVTPGEPASISCRSSRNIVHINGDTYLEWYLQKPGQSPQLLIYKVSNRFSGVPDRFSGSGSGTDFTLKISRVEAEDVGVYYCFQGSLLPWTFGQGTKVEIK"
–,binds,–,"anti-CCR4 CDR-grafted antibody HV1LV3 (antibody, human IgG1, V domains shown, Tested as COS-7 culture supernatant only; also called pKM2160HV1LV3) VH: EVQLVESGGGLVQPGGSLRLSCAASGFIFSNYGMSWVRQAPGKGLEWVSTISSASTYSYYPDSVKGRFTISRDNSKNTLYLQMNSLRAEDTAVYYCARHSDGNFAFGYWGQGTLVTVSS VL: DVLMTQSPLSLPVTPGEPASISCRSSRNIVHINGDTYLEWYLQKPGQSPQLLIYKVSNRFSGVPDRFSGSGSGTDFTLKISRVEAEDVGVYYCFQGSLLPWTFGQGTKVEIK"

# The remaining lines, values behind:
Binder,binding result [1],binding result [2],binding result [3]
"anti-CCR4 CDR-grafted antibody Ga10LV0 (antibody, human IgG1, V domains shown, CDR alone grafted; Tested as COS-7 supernatant and as purified antibody from YB2/0; also called pKANTEX2160Ga10LV0; pKM2160Ga10LV0) VH: EVQLVESGGDLVQPGRSLRLSCAASGFIFSNYGMSWVRQAPGKGLEWVATISSASTYSYYPDSVKGRFTISRDNAKNSLYLQMNSLRVEDTALYYCARHSDGNFAFGYWGQGTLVTVSS VL: DIVMTQSPLSLPVTPGEPASISCRSSRNIVHINGDTYLEWYLQKPGQSPQLLIYKVSNRFSGVPDRFSGSGSGTDFTLKISRVEAEDVGVYYCFQGSLLPWTFGQGTKVEIK",binds,binds,binds
"anti-CCR4 CDR-grafted antibody HV1LV1 (antibody, human IgG1, V domains shown, Tested as COS-7 culture supernatant only; also called pKM2160HV1LV1) VH: EVQLVESGGGLVQPGGSLRLSCAASGFIFSNYGMSWVRQAPGKGLEWVSTISSASTYSYYPDSVKGRFTISRDNSKNTLYLQMNSLRAEDTAVYYCARHSDGNFAFGYWGQGTLVTVSS VL: DVVMTQSPLSLPVTPGEPASISCRSSRNIVHINGDTYLEWYLQKPGQSPQLLIYKVSNRFSGVPDRFSGSGSGTDFTLKISRVEAEDVGVYYCFQGSLLPWTFGQGTKVEIK",–,binds,–
"anti-CCR4 CDR-grafted antibody HV0LV3 (antibody, human IgG1, V domains shown, Tested as COS-7 culture supernatant only; also called pKM2160HV0LV3) VH: EVQLVESGGGLVQPGGSLRLSCAASGFTFSNYGMSWVRQAPGKGLEWVSTISSASTYSYYPDSVKGRFTISRDNSKNTLYLQMNSLRAEDTAVYYCARHSDGNFAFGYWGQGTLVTVSS VL: DVLMTQSPLSLPVTPGEPASISCRSSRNIVHINGDTYLEWYLQKPGQSPQLLIYKVSNRFSGVPDRFSGSGSGTDFTLKISRVEAEDVGVYYCFQGSLLPWTFGQGTKVEIK",–,binds,–
"anti-CCR4 CDR-grafted antibody Ga10LV2 (antibody, human IgG1, V domains shown, Tested as COS-7 culture supernatant only; also called pKM2160Ga10LV2) VH: EVQLVESGGDLVQPGRSLRLSCAASGFIFSNYGMSWVRQAPGKGLEWVATISSASTYSYYPDSVKGRFTISRDNAKNSLYLQMNSLRVEDTALYYCARHSDGNFAFGYWGQGTLVTVSS VL: DILMTQSPLSLPVTPGEPASISCRSSRNIVHINGDTYLEWYLQKPGQSPQLLIYKVSNRFSGVPDRFSGSGSGTDFTLKISRVEAEDVGVYYCFQGSLLPWTFGQGTKVEIK",–,binds,–
"anti-CCR4 CDR-grafted antibody HV0LV0 (antibody, human IgG1, V domains shown, Tested as COS-7 culture supernatant only; also called pKM2160HV0LV0) VH: EVQLVESGGGLVQPGGSLRLSCAASGFTFSNYGMSWVRQAPGKGLEWVSTISSASTYSYYPDSVKGRFTISRDNSKNTLYLQMNSLRAEDTAVYYCARHSDGNFAFGYWGQGTLVTVSS VL: DIVMTQSPLSLPVTPGEPASISCRSSRNIVHINGDTYLEWYLQKPGQSPQLLIYKVSNRFSGVPDRFSGSGSGTDFTLKISRVEAEDVGVYYCFQGSLLPWTFGQGTKVEIK",–,binds,–
"anti-CCR4 CDR-grafted antibody HV2LV3 (antibody, human IgG1, V domains shown, Tested as COS-7 culture supernatant only; also called pKM2160HV2LV3) VH: EVQLVESGGGLVQPGGSLRLSCAASGFTFSNYGMSWVRQAPGKGLEWVSTISSASTYSYYPDSVKGRFTISRDNSKNTLYLQMNSLRAEDTAVYYCGRHSDGNFAFGYWGQGTLVTVSS VL: DVLMTQSPLSLPVTPGEPASISCRSSRNIVHINGDTYLEWYLQKPGQSPQLLIYKVSNRFSGVPDRFSGSGSGTDFTLKISRVEAEDVGVYYCFQGSLLPWTFGQGTKVEIK",–,binds,–
"anti-CCR4 CDR-grafted antibody HV1LV0 (antibody, human IgG1, V domains shown, Tested as COS-7 culture supernatant only; also called pKM2160HV1LV0) VH: EVQLVESGGGLVQPGGSLRLSCAASGFIFSNYGMSWVRQAPGKGLEWVSTISSASTYSYYPDSVKGRFTISRDNSKNTLYLQMNSLRAEDTAVYYCARHSDGNFAFGYWGQGTLVTVSS VL: DIVMTQSPLSLPVTPGEPASISCRSSRNIVHINGDTYLEWYLQKPGQSPQLLIYKVSNRFSGVPDRFSGSGSGTDFTLKISRVEAEDVGVYYCFQGSLLPWTFGQGTKVEIK",–,binds,–
